Laboratory results published in PMC2701924, “Molecular cloning and expression of a novel trehalose synthase gene from Enterobacter hormaechei” (Microbial Cell Factories, 2009).

Substrate: OC[C@H]1O[C@H](O[C@H]2O[C@H](CO)[C@@H](O)[C@H](O)[C@H]2O)[C@H](O)[C@@H](O)[C@@H]1O
Test: initial rates, ion chromatography of products, Lineweaver-Burk
Format: biochemical, Enterobacter hormaechei
Details: substrate 1-200 mM, pH and temperature not stated for kinetics (standard assay 50 mM phosphate pH 6, 37°C), reverse reaction

B1: recombinant TreS (Enterobacter hormaechei trehalose synthase) (Enterobacter hormaechei) (protein)
chain: MAGWHTRAIIYQIDTALFYDLNGDGCGDIAGITAKLRYIRRMGATVIWITPFYLTPFLDEGYDVSDHLQVDPRFGKLNDIIAFIEQARELGMQVIIELLIQHTSDAHPWFQQARRNPQSPYRDYYLWSDTDDDDTPPMFPGVEKSIWTWDDEAGQYYRHMFYHHEPDLNLASPAVLKEVENIIIFWLKLGVSGFRLDAASHLTKQAGRGDEKRGLWILEHLRCLIGQRNPDAILLGEVDVEVEAYKDYFGQNDRLNLVLNFWLNKYFYVSLAEKSARPLRNAVKKMIVPPDSCCFANWLRNHDELDLEGIGKKAKQTVIDTFAPDEEMSVYQRGIRRRLAPMLNGDRKRLAFCHAVLFSLPGVPVMRYGDEIGMGDDLDLEERYAVRTPMQWAGSQGGGFSDADPETFVAPMIDHGPYRYQKINVADSLLHRNSLLHCIIDIANTRSEFPEIGVAPFRLINIDSDAVLGIYYETDTRSILTFVNFSDKPVNFTARGIRHATWTACLADKRYDDALVCGKTVALNLSGYGYRWFWTDRTALR
notes: pET30a(+) Nco I/Not I; 46 additional N-terminal residues incl; 6-His tag kept; about 65 kDa on SDS-PAGE; expressed in E. coli BL21(DE3) plysS, Ni-NTA
With B1 the Km was 75 mM.
